From patent US20220241369A1, “COMPOSITIONS AND METHODS OF MODULATING INFLAMMATION” (La Jolla Institute for Allergy and Immunology, priority 2018, published 2022)

Columns and labels:
[1] = tested on: BEAS-2B human bronchial epithelial cells; assay: HRF secretion, western blot, BEAS-2B; type: cell-based; details: combination of HDM and cytokine, 24 h
Text: As lung epithelial cells are exposed to the environment, HRF secretion was studied using BEAS-2B human bronchial epithelial cells. A small amount of HRF was secreted constitutively, but house dust mite allergens induced the secretion of high-molecular-weight HRF species (HMW-HRFs). Various cytokines including epithelial derived cytokines as well as Th2 cytokines and proinflammatory cytokines further enhanced HDM-induced secretion of HMW-HRFs.
Cultured cells were scraped and treated with adenosine and ATP, which should be abundantly present in inflammatory or injured tissues. These conditions induced secretion of HRF monomer, dimer and HMW-HRFs like stimulation with HDM plus cytokines.
Culture supernatants were analyzed by SDS-PAGE under nonreducing (−DTT) and reducing (+DTT) conditions, followed by western blotting for HRF probing. HDM-induced HRF secretion was enhanced not only by Th2 cytokines (IL-4, IL-5, and IL-13), but also by epithelial derived cytokines (IL-25, IL-33, and TSLP) and proinflammatory cytokines (IL-1beta, IL-6 and TNF). med, medium alone; US, unstimulated; HDM, house dust mite; CR, cockroach; RW, ragweed; Af, Aspergillus fumigatus. Arrowhead, HRF monomer.

[2] = tested on: Raw264.7 murine macrophages; assay: HRF secretion into culture supernatant, western blot, macrophages; type: cell-based, mouse; details: stimulated overnight, 20 or 100 ng/ml
Protocol: (§1) FIGS. 4A-4C show HRF is secreted by various cells. CMT-93 murine intestinal epithelial cells (FIG. 4A) and NIH/3T3 murine fibroblasts (FIG. 4B) and Raw264.7 murine macrophages (FIG. 4C) were stimulated overnight with low (20 ng/ml) and high (100 ng/mL) concentrations of various cytokines. HRF secreted into culture supernatants was detected by western blotting. Med and US denote medium only and supernatant from unstimulated cells, respectively. −DTT and +DTT indicate SDS gels were run under non-reducing and reducing conditions, respectively. Gel portions of containing the 23 kDa HRF monomer are shown except that a larger portion of the non-reducing gel is shown in panel C. Arrow indicates the position of HRF dimer, which disappeared under reducing conditions.
(§2) The following cell lines were cultured in DMEM plus 10% FCS except for U-937 cells which were cultured in RPMI1640 plus 10% FCS: CMT-93 mouse and Caco-2 (with 20% FCS) human intestinal epithelial cell lines; NIH/3T3 mouse fibroblast line; Raw 264.7 mouse and U-937 human macrophage lines; BEAS-2B human bronchial epithelial cell line; 293T human embryonic kidney cell line (obtained from ATCC, Manassas, Va., except for NIH/3T3, which was provided by S. A. Aaronson, NIH). Fibroblast-like stromal cells were cultured from small intestines of BALB/c mice in DMEM/10% FBS. CD4^+ T and B cells were purified from mouse spleens using BD IMag™ Mouse CD4 and B cells enrichment set-DM. Low-density bone-marrow cells were cultured in the presence of 100 ng/ml of stem cell factor (PeproTech) and 100 ng/ml of FLT-3 ligand (R&D Systems) for 4 days, and with 10 ng/mL of IL-5 (R&D Systems) thereafter for 10 days to obtain bone marrow-derived eosinophils (44). Bone marrow cells were cultured in the presence of 20 ng/ml of GM-CSF for 6 days and adherent cells were collected as bone marrow-derived macrophages. Non-adherent cells were further cultured with 5 ng/ml GM-CSF and the non-adherent cells were collected as bone marrow-derived dendritic cells. […]

[3] = tested on: NIH/3T3 murine fibroblasts and primary intestinal fibroblasts; assay: HRF secretion into culture supernatant, western blot, fibroblasts; type: cell-based, mouse; details: stimulated overnight, 20 or 100 ng/ml
Protocol: as §1
The following cell lines were cultured in DMEM plus 10% FCS except for U-937 cells which were cultured in RPMI1640 plus 10% FCS: CMT-93 mouse and Caco-2 (with 20% FCS) human intestinal epithelial cell lines; NIH/3T3 mouse fibroblast line; Raw 264.7 mouse and U-937 human macrophage lines; BEAS-2B human bronchial epithelial cell line; 293T human embryonic kidney cell line (obtained from ATCC, Manassas, Va., except for NIH/3T3, which was provided by S. A. Aaronson, NIH). Fibroblast-like stromal cells were cultured from small intestines of BALB/c mice in DMEM/10% FBS. […]

[4] = tested on: CMT-93 murine intestinal epithelial cells; assay: HRF secretion into culture supernatant, western blot, CMT-93; type: cell-based, mouse; details: stimulated overnight, 20 or 100 ng/ml
Protocol: as §1, §2

[5] = tested on: c-Kit+ mucosal mast cells of the small intestine; assay: Ex vivo mast cell activation test (MCAT); type: cell-based, mouse; details: 15 min at 37° C.
Protocol: FIGS. 2A-2C show mucosal mast cells can be activated ex vivo by antigen. Cells were released with EDTA from small intestines of non-sensitized/OVA challenged (Cont) or OVA-sensitized/OVA-challenged (OVA) mice, and mononuclear cells were selected. The cells were incubated for 15 min at 37° C. with OVA or anti-IgE antibody, and activation of Kit^+ mast cells was measured by flow cytometry (FIG. 2A, FIG. 2B). **, ***: p<0.01, p<0.001 by Student's t-test. (n=2; a representative of 2 independent experiments) (FIG. 2C) Mucosal cells derived from OVA-sensitized/OVA-challenged mice were stimulated with PBS (n=4), OVA (10 ng/ml, n=4) or HRF dimer (100 μg/ml, n=2) in the presence or absence of HRF-2CA (300 μg/ml).
FIGS. 11A-11C show HRF dimer, but not monomer can activate mast cells. (FIG. 11A) Purified dimeric and monomeric HRF expressed in E. coli. Recombinant HRF-[…] was purified first by Histrap HP and then Sephacryl S-200 HR16/60. Two peaks were observed by Sephacryl size fractionation. The first (Fr1) and second (Fr3) peaks contained dimer and monomer, respectively, as shown by SDS-PAGE. Fr1 and Fr3 were used for mast cell stimulation. (FIG. 11B) Cells were released with 10 mM EDTA from small intestines of OVA-sensitized/OVA-challenged mice, and mononuclear cells were selected. The cells were incubated for 15 min at 37° C. with mHRF monomer or dimer (100 μg/ml), or PBS, and Kit^+ mast cell activation (LAMP-1^+) was measured by flow cytometry (n=3). (FIG. 11C) Control experiments indicate an excellent specificity of the assay for HRF multimers. HRF-2CA (2CA) was used as a monomer control (n=2 for each concentration). Note that total concentrations of the 1:9 mixture of dimer:monomer gave almost the same luminescence values as did ten-fold less concentrations of dimer.
Twenty-four hours after the last OVA challenge, mice were sacrificed and small intestines (0.5-15 cm from stomach) were collected. The intestinal tissues were opened longitudinally and washed with PBS. Then, the tissues were incubated with 10 mM EDTA-PBS for 30 min at 37° C. After incubation, the tissues were transferred to 30 ml PBS in 50 ml tubes and vigorously shaken. After washed, the cells were resuspended in 40% Percoll solution and slowly loaded on the top of 75% Percoll solution. The cells were then centrifuged (2000 rpm, 20 min) and lymphocytes were collected. The cells were once centrifuged and resuspended in Tyrode's buffer. Abs (Biotin-anti-CD4 mAb (clone RM4-5), Biotin-anti-CD8 mAb (clone 53-6.7), Biotin-anti-B220 mAb (clone RA3-6B2), Biotin-anti-CD326 mAb (clone G8.8), PE-anti-CD117 (clone 2B8), AlexaFluor647-anti-LAMP-1 mAb (clone 1D4B)) (Biolegend) were added and cells were then stimulated with OVA, anti-IgE (clone RME-1, BioLegend) and recombinant dimeric murine HRF for 15 min at 37° C. After activation, cells were washed and incubated with FITC-streptavidin (Catalog #405202, Biolegend) for 30 min at 4° C. LAMP-1 expression was detected using FACS Calibur. Data were analyzed using FlowJo software.

[6] = tested on: mouse bone marrow-derived mast cells (BMMCs); assay: IL-13 production of IgE-sensitized BMMCs stimulated with TNP3-BSA and mHRF dimer; type: cell-based; details: IL-13 ELISA
Protocol: (§3) FIGS. 33A-33B show HRF dimers enhance IgE/antigen-induced activation of mast cells and basophils. […] IL-13 in culture supernatants was quantified by ELISA. […] Then, HDM allergen (Dermatophagoides farinae at 10 ng/ml) was added to the cells together with FITC-anti-CD63 and APC-anti-CCR3 for 15 min. Expression of CD63 (activation marker) and CCR3 (basophil marker) was analyzed by flow cytometry.

[7] = tested on: OVA-induced allergic diarrhea; assay: OIT desensitization model, hourly increasing amounts of OVA for 3 days; type: in vivo, mouse
Protocol: (§4) In a classical tolerance model, five daily oral administrations of 1 mg OVA from day −11 to day −7 were performed before i.p. OVA/alum-sensitization on days 0 and 7 and followed by ig. OVA (30 mg) gavages on days 14, 21, 28 and 35. In another OIT model, mice were i.d. sensitized with OVA (750 μg) on days 0, 13 and 27 and followed by 9 oral OVA (60 mg) challenges from day 44 to day 60 to induce diarrhea in all mice. Then mice were i.g. treated with hourly increasing amounts of OVA on day 100 (0.1, 0.2, 0.5 mg), on day 101 (1, 2, 5 mg) and on day 102 (10, 20, 60 mg).
Finally, HRF-reactive IgE and HRF-reactive IgG were monitored in another desensitization model, which mimicked the human OIT more faithfully. OVA-sensitized mice were first rendered allergic by OVA challenges and then received hourly increasing amounts of OVA for 3 consecutive days (OIT) after a resting period (FIG. 7D). […] Levels of HRF-reactive IgG and OVA-specific IgG were not changed by OIT (FIG. 7E). In non-sensitized mice, HRF-reactive IgE and HRF-reactive IgG levels were not changed by OIT and OVA-specific IgE and IgG levels were extremely low irrespective of OIT treatment (data not shown).

[8] = tested on: OVA-induced allergic diarrhea; assay: Classical tolerance model, oral OVA before sensitization; type: in vivo, mouse
Protocol: as §4
Applicant then tested the possibility provoked by the above human data that the level of HRF-reactive IgE is kept low in a desensitized state, using two murine models. In a classic tolerance model (30), five daily oral administrations of 1 mg OVA from day −11 to day −7 (OIT) prevented the OVA-induced development of allergic diarrhea in OVA-sensitized mice (FIG. 7B). By contrast, without oral pretreatment, all OVA-sensitized mice developed allergic diarrhea.

basophils = assay: Basophil activation (CD63) in blood of an HDM-sensitized asthmatic; type: cell-based, human; details: 10 μg/ml, 30 min, then HDM allergen 10 ng/ml for 15 min
Protocol: as §3

[9] = cells from allergic (OVA-sensitized/OVA-challenged) mice

IL-1β
HDM-induced HRF secretion [1]: enhanced | secretion of HRF monomer [2]: increased | HRF secretion [3]: enhanced | HRF secretion [4]: strongly induced

B1: HRF dimer: recombinant disulfide-linked dimer of mouse histamine releasing factor (protein, UniProt P63028 1-172, looked up)
Translationally-controlled …: MIIYRDLISHDELFSDIYKIREIADGLCLEVEGKMVSRTEGAIDDSLIGGNASAEGPEGEGTESTVVTGVDIVMNHHLQETSFTKEAYKKYIKDYMKSLKGKLEEQKPERVKPFMTGAAEQIKHILANFNNYQFFIGENMNPDGMVALLDYREDGVTPFMIFFKDGLEMEKC
modifications: disulfide-linked dimer
notes: recombinant disulfide-linked dimer of mouse histamine releasing factor
activation (LAMP-1+) of mucosal mast cells by the substance [5, 9]: can activate | activation (LAMP-1+) of mucosal mast cells by the substance ([5]; cells from allergic (OVA-sensitized/OVA-challenged) mice, listed as dimeric HRF): activated | IgE/antigen-induced activation of mast cells [6]: enhance

B2: OVA: food allergen of the murine model, also given orally as OIT (protein, UniProt P01012 2-386, looked up)
Ovalbumin: GSIGAASMEFCFDVFKELKVHHANENIFYCPIAIMSALAMVYLGAKDSTRTQINKVVRFDKLPGFGDSIEAQCGTSVNVHSSLRDILNQITKPNDVYSFSLASRLYAEERYPILPEYLQCVKELYRGGLEPINFQTAADQARELINSWVESQTNGIIRNVLQPSSVDSQTAMVLVNAIVFKGLWEKAFKDEDTQAMPFRVTEQESKPVQMMYQIGLFRVASMASEKMKILELPFASGTMSMLVLLPDEVSGLEQLESIINFEKLTEWTSSNVMEERKIKVYLPRMKMEEKYNLTSVLMAMGITDVFSSSANLSGISSAESLKISQAVHAAHAEINEAGREVVGSAEAGVDAASVSEEFRADHPFLFCIKHIATNAVLFFGRCVSP
activation (LAMP-1+) of mucosal mast cells by the substance [5, 9]: further activated | activation (LAMP-1+) of mucosal mast cells by the substance ([5]; cells from non-sensitized mice): few mast cells were activated | levels of HRF-reactive IgE ([7]; before vs after OIT): lowered | levels of HRF-reactive IgG and OVA-specific IgG ([7]; before vs after OIT): not changed | levels of OVA-specific IgE ([7]; before vs after OIT): did not change | OVA-sensitized/OVA-challenged mice desensitized to the final gavage dose of 60 mg ([7]; hourly increasing amounts for 3 consecutive days): 80% | OVA-induced development of allergic diarrhea ([8]; five daily oral administrations of 1 mg from day -11 to day -7): prevented | HRF-reactive IgE levels ([8]; tolerance-induced vs non-tolerant and non-sensitized mice): significantly reduced

B3: hHRF dimer: human HRF dimer (protein)
chain: MIIYRDLISHDEMFSDIYKIREIADGLCLEVEGKMVSRTEGNIDDSLIGGNASAEGPEGEGTESTVITGVDIVMNHHLQETSFTKEAYKKYIKDYMKSIKGKLEEQRPERVKPFMTGAAEQIKHILANFKNYQFFIGENMNPDGMVALLDYREDGVTPYMIFFKDGLEMEKC
IgE/antigen-induced activation of basophils (CD63) (basophils): enhance
